Numbering of substitutions follows the chain as printed. Names and notes keep the numbering of the source. No end group written: not given here.

The chains are these.
T1: Ac-CWAcp-PPPALPPKKR.amide, C3G-derived peptide designed for attachment to an affinity column (N-terminal acetyl; ε-aminocaproic acid (Acp, B) at position 3; C-terminal amide; on the column the Cys side chain is coupled to iodoacetyl agarose (Sulfolink))
T1 construct: also called Acetyl-CWAcp-C3G; Ac-CWBPPPALPPKKR.amide
T1 peptide: CWPPPALPPKKR

B1: control peptide Ac-CAcpYGGFL.amide (YGGFL = leucine enkephalin) (peptide)
peptide: Ac-CYGGFL-NH2
modifications: not fully specified (residue 1); also: Cys side chain coupled to Sulfolink agarose
notes: also called Ac-CBYGGFL.amide; Leucine-Enkephalin agarose column
B2: c-Crk N-terminal SH3 domain (134-191) analogue, D^163K^164 replaced by Gly-[COS]-βAla (other)
chain: AEYVRALFDFNGNDEEDLPFKKGDILRIRGXPEEQWWNAEDSEGKRGMIPVPYVEKYR
modifications: not fully specified; Gly-[COS]-βAla unit (-NH-CH2-CO-S-CH2-CH2-CO-) in place of D163-K164; backbone thioester
notes: Positions count on murine c-Crk; X = -S-CH2CH2-CO- unit; also called DK; Gly-SβAla analogue
B3: c-Crk N-terminal SH3 domain (134-191) analogue, dipeptide LR (159-160) replaced by Gly-[COS]-βAla (other)
chain: B2 chain with L26G, R27X, G30D, X31K
modifications: not fully specified; Gly-[COS]-βAla unit (-NH-CH2-CO-S-CH2-CH2-CO-) in place of L159-R160; backbone thioester
notes: Positions count on murine c-Crk; X = -S-CH2CH2-CO- unit; also called Gly-SβAla analogue
B4: c-Crk N-terminal SH3 domain (134-191) analogue, dipeptide DI (157-158) replaced by Gly-[COS]-βAla (other)
chain: B2 chain with D24G, I25X, G30D, X31K
modifications: not fully specified; Gly-[COS]-βAla unit (-NH-CH2-CO-S-CH2-CH2-CO-) in place of D157-I158; backbone thioester
notes: as for B3
B5: c-Crk N-terminal SH3 domain (134-191) analogue, R^162D^163 replaced by Gly-[COS]-βAla (other)
chain: B2 chain with R29G, G30X, X31K
modifications: not fully specified; Gly-[COS]-βAla unit (-NH-CH2-CO-S-CH2-CH2-CO-) in place of R162-D163; backbone thioester
notes: Positions count on murine c-Crk; X = -S-CH2CH2-CO- unit; also called RD; Gly-SβAla analogue
B6: c-Crk N-terminal SH3 domain (134-191) analogue, dipeptide GD (156-157) replaced by Gly-[COS]-βAla (other)
chain: B2 chain with D24X, G30D, X31K
modifications: not fully specified; Gly-[COS]-βAla unit (-NH-CH2-CO-S-CH2-CH2-CO-) in place of G156-D157; backbone thioester
notes: G156 stays Gly; Positions count on murine c-Crk; X = -S-CH2CH2-CO- unit; also called Gly-SβAla analogue
B7: c-Crk N-terminal SH3 domain (134-191) analogue, dipeptide RI (160-161) replaced by Gly-[COS]-βAla (other)
chain: B2 chain with R27G, I28X, G30D, X31K
modifications: not fully specified; Gly-[COS]-βAla unit (-NH-CH2-CO-S-CH2-CH2-CO-) in place of R160-I161; backbone thioester
notes: as for B3
B8: c-Crk N-terminal SH3 domain (134-191) analogue, K^164P^165 replaced by Gly-[COS]-βAla (other)
chain: B2 chain with G30D, X31G, P32X
modifications: not fully specified; Gly-[COS]-βAla unit (-NH-CH2-CO-S-CH2-CH2-CO-) in place of K164-P165; backbone thioester
notes: Positions count on murine c-Crk; X = -S-CH2CH2-CO- unit; also called KP; Gly-SβAla analogue
B9: c-Crk N-terminal SH3 domain (134-191) analogue, I^161R^162 replaced by Gly-[COS]-βAla (other)
chain: B2 chain with I28G, R29X, G30D, X31K
modifications: not fully specified; Gly-[COS]-βAla unit (-NH-CH2-CO-S-CH2-CH2-CO-) in place of I161-R162; backbone thioester
notes: Positions count on murine c-Crk; X = -S-CH2CH2-CO- unit; also called IR; Gly-SβAla analogue
B10: c-Crk N-terminal SH3 domain (134-191) analogue, dipeptide IL (158-159) replaced by Gly-[COS]-βAla (other)
chain: B2 chain with I25G, L26X, G30D, X31K
modifications: not fully specified; Gly-[COS]-βAla unit (-NH-CH2-CO-S-CH2-CH2-CO-) in place of I158-L159; backbone thioester
notes: as for B3
B11: c-Crk N-terminal SH3 domain (134-191) analogue, L^151P^152 replaced by Gly-[COS]-βAla (other)
chain: B2 chain with L18G, P19X, G30D, X31K
modifications: not fully specified; Gly-[COS]-βAla unit (-NH-CH2-CO-S-CH2-CH2-CO-) in place of L151-P152; backbone thioester
notes: Positions count on murine c-Crk; X = -S-CH2CH2-CO- unit; Tested crude in a pooled array; also called LP
B12: c-Crk N-terminal SH3 domain (134-191) analogue, D^147E^148 replaced by Gly-[COS]-βAla (other)
chain: B2 chain with D14G, E15X, G30D, X31K
modifications: not fully specified; Gly-[COS]-βAla unit (-NH-CH2-CO-S-CH2-CH2-CO-) in place of D147-E148; backbone thioester
notes: Positions count on murine c-Crk; X = -S-CH2CH2-CO- unit; Tested crude in a pooled array; also called DE
B13: c-Crk N-terminal SH3 domain (134-191) analogue, dipeptide ED (149-150) replaced by Gly-[COS]-βAla (other)
chain: B2 chain with E16G, D17X, G30D, X31K
modifications: not fully specified; Gly-[COS]-βAla unit (-NH-CH2-CO-S-CH2-CH2-CO-) in place of E149-D150; backbone thioester
notes: Positions count on murine c-Crk; X = -S-CH2CH2-CO- unit; Tested crude in a pooled array
B14: c-Crk N-terminal SH3 domain (134-191) analogue, E^148E^149 replaced by Gly-[COS]-βAla (other)
chain: B2 chain with E15G, E16X, G30D, X31K
modifications: not fully specified; Gly-[COS]-βAla unit (-NH-CH2-CO-S-CH2-CH2-CO-) in place of E148-E149; backbone thioester
notes: as for B13

The first test has as its target T2, synthetic murine cCrk N-terminal SH3 domain (residues 134-191) (murine, UniProt Q64010 134-191).
T2 construct: Made by total chemical synthesis and folded in HEPES/NaCl buffer; also called cCrk(134-191); c-Crk SH3
Nature of the test: control peptide affinity column.
Turning to B1, the binding result is “no binding”.

The next test concerns the target T2, synthetic murine cCrk N-terminal SH3 …. Kind of test: in solution; method not stated in the legend. Here is the method: (§1) The resulting synthetic protein domain was then assayed for its affinity for two different proline-rich peptides. […] This change in solvent exposure leads to an increase in the fluorescence intensity of the tryptophan sidechain which can be monitored as a function of increasing ligand concentration (Feng et al. *Science* 1994.266, 1241–1245).
(§2) 1994, 3, 1261–1266. The purified and lyophilized 58 residue polypeptide chain (0.2 mg) was folded by dissolving in 0.6 mL of 20 mM Hepes, 60 mM NaCl, pH 7.3 to produce a folded protein solution (~50 μM).
Target sequence in this assay (Q64010 134-191 limits assumed): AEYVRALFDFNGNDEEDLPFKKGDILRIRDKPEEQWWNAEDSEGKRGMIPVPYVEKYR
PPPALPPKKR-NH2 (also called C3G peptide) [C3G-derived peptide PPPALPPKKR.amide] came in with a Kd of 2300 nM.

Another test addresses B1. Nature of the test: nine-member array on control peptide column, A280. As for the experimental part:
(§3) The column was then washed with 0.5 M NaCl buffer to remove nonspecific binding proteins from the column. Specifically bound protein analogues were then eluted with 1 M hydroxylamine bufffer. Amounts of eluted peptide were monitored by UV absorbance at 280 nm. This procedure was used for both the C3G peptide column and for the control column loaded with Ac-C-AcpYGGFL.amide.
(§4) Affinity chromatography of the arrays of protein analogues was carried out as follows. […] After incubation at room temperature for a period of 6–8 hours the column was washed with 0.5 M NaCl in 0.1 M sodium phosphate, pH 7.0 buffer (6×1 mL) to remove any non-specifically bound proteins. The first two 1 mL fractions were collected and immediately mixed with an equal volume of 1 M NH_2OH, 20 mM NH_4HCO_3, pH 5.5 buffer to cleave any thioester-containing protein analogues. […] Samples of the eluted fractions were monitored by UV absorbance at 280 nm. This procedure was used for both the C3G peptide column and for the control column loaded with Ac-C-Acp-YGGFL.amide. To accommodate MALDI analysis, both the 0.5M NaCl wash and 1 M NH_2OH fractions were desalted on a low pressure, disposable C-18 column, washed with HPLC buffer A and peptide fragments eluted with 1.5 mL 60% acetonitrile in water, 0.1% TFA.
In the case of B2, the binding result is “no binding”. Take B3: the binding result is on record as “no binding”. Turning to B4, the binding result is reported as “no binding”. As for B5, the binding result is listed as “no binding”. For B6, the binding result was “no binding”. As to B7, the binding result is listed as “no binding”. On to B8, for which the binding result is reported as “no binding”. As for B9, the binding result is given as “no binding”. Still for that read-out and setting: next, B10: “no binding”.

For a further test, the target named is T1, Ac-CWAcp-PPPALPPKKR.amide, C3G-derived …. Nature of the test: 19-member array on C3G peptide affinity column, MALDI MS readout.
Take B11: the binding result is on record as “binds”. As for B2, the binding result is listed as “binds”. The same measure, in the same setting: next, B3: “no binding”; B12: “binds”. Still for that read-out and setting: for B4 the value was “no binding”; for B13, “no binding”.

Consider B14, for which the binding result is on record as “binds”. On the same count and under the same terms, next, B5: “binds”; B7: “no binding”. For the molecule B8, the binding result was “binds”. The same measure, in the same setting: next, B9: “binds”; B10: “no binding”.

For a further test, the target named is T2, synthetic murine cCrk N-terminal SH3 …. Nature of the test: tryptophan fluorescence titration in solution, 12 hours incubation. Here is the method: as §1, §2
PPPALPPKKR-NH2 (also called C3G peptide) [C3G-derived peptide PPPALPPKKR.amide]: the Kd is 1800 nM.

For a further test, the target named is T1, Ac-CWAcp-PPPALPPKKR.amide, C3G-derived …. Kind of test: Example 2: nine-member array on C3G peptide affinity column, MALDI MS readout. Here is the method: as §3, §4
As to B6, the binding result is listed as “no binding”.

The Kd is the constant that tells how readily two partners part at equilibrium. A high value points to a looser complex.
